Legend:
[1] = target: T1, mouse B6 class I antigens (D^b or K^b molecules on the surface of RMA-S cells) (mouse, UniProt P01887 21-119); test: binding of 9-mer peptides within p117-139 to mouse B6 (H-2^b) class I; RMA-S cell assay, flow cytometry
[2] = target: T1, mouse B6 class I antigens (D^b or K^b …); test: RMA-S cells incubated with peptide (25 ug/ml), stained with FITC anti-D^b or anti-K^b, flow cytometry

T1 sequence (P01887 21-119): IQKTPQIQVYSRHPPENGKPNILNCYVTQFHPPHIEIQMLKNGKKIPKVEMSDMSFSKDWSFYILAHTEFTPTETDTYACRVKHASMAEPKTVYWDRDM

SSGQARMFP [WT1 peptide P121-129 (SSGQARMFP)]
Binding Affinity to Mouse MHC Class I (%) [1]: 1%

CMTWNQMNL [WT1 peptide p235-243 (CMTWNQMNL)]
Binding Affinity to Mouse MHC Class I (% increase of D^b or K^b on RMA-S cells) [2]: 33.6%

YSSDNLYQM [WT1 peptide p221-229 (YSSDNLYQM)]
Binding Affinity to Mouse MHC Class I (% increase of D^b or K^b on RMA-S cells) [2]: 0.8%

ARMFPNAPY [WT1 peptide P125-133 (ARMFPNAPY)]
Binding Affinity to Mouse MHC Class I (%) [1]: 1%

PNAPYLPSC [WT1 peptide P129-137 (PNAPYLPSC)]
Binding Affinity to Mouse MHC Class I (%) [1]: 1%

NLYQMTSQL [WT1 peptide p225-233 (NLYQMTSQL)]
Binding Affinity to Mouse MHC Class I (% increase of D^b or K^b on RMA-S cells) [2]: 5.8%

SCLESQPAI (also called human p136-144) [WT1 peptide p136-144 human (SCLESQPAI)]
Binding Affinity to Mouse MHC Class I (% increase of D^b or K^b on RMA-S cells) [2]: 52%

SQASSGQAR [WT1 peptide P118-126 (SQASSGQAR)]
Binding Affinity to Mouse MHC Class I (%) [1]: 2%

GCNKRYFKL [WT1 peptide p329-337 (GCNKRYFKL)]
Binding Affinity to Mouse MHC Class I (% increase of D^b or K^b on RMA-S cells) [2]: 1.2%

ASSGQARMF [WT1 peptide P120-128 (ASSGQARMF)]
Binding Affinity to Mouse MHC Class I (%) [1]: 1%

FPNAPYLPS [WT1 peptide P128-136 (FPNAPYLPS)]
Binding Affinity to Mouse MHC Class I (%) [1]: 1%

QARMFPNA [WT1 peptide P124-132 (printed QARMFPNA)]
Binding Affinity to Mouse MHC Class I (%) [1]: 1%

ALLPAVPSL (also called human p10-18) [WT1 peptide p10-18 human (ALLPAVPSL)]
Binding Affinity to Mouse MHC Class I (% increase of D^b or K^b on RMA-S cells) [2]: 2.2%

NQMNLGATL [WT1 peptide p239-247 (NQMNLGATL)]
Binding Affinity to Mouse MHC Class I (% increase of D^b or K^b on RMA-S cells) [2]: 1%

PSQASSGQA [WT1 peptide P117-125 (PSQASSGQA)]
Binding Affinity to Mouse MHC Class I (%) [1]: 2%

NAPYLPSCL [WT1 peptide P130-138 (NAPYLPSCL)]
Binding Affinity to Mouse MHC Class I (%) [1]: 79%

QASSGQARM [WT1 peptide P119-127 (QASSGQARM)]
Binding Affinity to Mouse MHC Class I (%) [1]: 2%

APYLPSCLE [WT1 peptide P131-139 (APYLPSCLE)]
Binding Affinity to Mouse MHC Class I (%) [1]: 1%

QMTSQLECM [WT1 peptide p228-236 (QMTSQLECM)]
Binding Affinity to Mouse MHC Class I (% increase of D^b or K^b on RMA-S cells) [2]: 1.2%

MFPNAPYLP [WT1 peptide P127-135 (MFPNAPYLP)]
Binding Affinity to Mouse MHC Class I (%) [1]: 2%

— US20030215458A1 (published 2003)
